Test results reported in the DeepSol protein solubility set.

test: soluble on expression in E. coli; label from the status in PepcDB or PDB records

Sequence | soluble on expression in E. coli
MERAEILGVGTELLYGETLDTNTAEIARSLKPYALKVERTLRVADEVAPLAREVEEAFARARLVVLSGGLGPTPDDVTREAVALALGEPLELDEAVLGEIEAFFRARGRAMPEANRKQAMRIPSATWLKNPRGTAPGWWVRKGGKDLVLLPGPPPEWRPMWQEVLPRLGLPRRPYAERVLKTWGIGESEIVERLGPLFVRGEEVEVGTYPKVHGVEVVVRGREDRVAELAERIKKKLLKEVWGEGEMTLAEAVKRRMEREGATLSTMESLTGGLLGAEITRVPGASRFYLGGVVSYSVGAKARFGVPQDLLSRTVSAETARAMAEAARSLFGSTYALATTGVAGPDPLEGEPPGTVYVALAGPTGAEVRRYRFPGDRETVRLRSVYAALALLVT | soluble
MERKLFAFDIDGTLLNSEKKALDSTREALAKLREQGHLVTLATGRSRYMAQEVIWDLDFTNYVLCNGAAAFVDHEQYYQNLLHAEALERLAQDSDQRGLGFACVGLDDIKKSNQHRAEKMEIAMNSFHFHSPAYDEHFYRQNDIYQALAFYDAEDQCTFEEEYPEFRFIRWHQHSVDVVPKDGSKSATLTYLAKRVGIDAKNIIAFGDGENDREMLSHAGIGVAMGNASPSIQKVATMVTDTNDNDGIWKALKEMKAI | not soluble
MERPISEAYFQEAKRHIPGGVSSPVRAFKAVGGTPPFLVRGEGAYVWDADGNRYLDYVMSWGPLILGHAHPKVLARVRETLERGLTFGAPSPLEVALAKKVKRAYPFVDLVRFVNSGTEATMSALRLARGYTGRPYIVKFRGNYHGHADGLLVEAGSGALTLGVPSSAGVPEEYAKLTLVLEYNDPEGLREVLKRRGEEIAAIIFEPVVGNAGVLVPTEDFLKALHEAKAYGVLLIADEVMTGFRLAFGGATELLGLKPDLVTLGKILGGGLPAAAYAGRREIMEKVAPLGPVYQAGTLSGNPLAMAAGLATLELLEENPGYYAYLEDLGARLEAGLKEVLKEKGLPHTVNRVGSMITVFFTEGPVVTFQDARRTDTELFKRFFHGLLDRGIYWPPSNFEAAFLSVAHREEDVEKTLEALRKAL | soluble
MERPRFSNYYAVRVTGGQEINVALMIEERIKTNNIKEVYSIIVPPNVKGYVILEATGPHVVKLVSQGIRHVRGFAQGLVQKDDIIKFISKTTIAPAYKVGDMVEVTSGPFRGMQAQVVRIDSAKNEVVLNILESSFPLQVTVPIDQVKPVKK | soluble
MERQQQQQQQLRNLRDFLLVYNRMTELCFQRCVPSLHHRALDAEEEACLHSCAGKLIHSNHRLMAAYVQLMPALVQRRIADYEAASAVPSVAAEQPGVSPSGS | soluble
MERREEQPGAAGAGAAPALDFTVENVEKALHQLYYDPNIENKNLAQKWLMQAQVSPQAWHFSWQLLQPDKVPEIQYFGASALHIKISRYWSDIPTDQYESLKAQLFTQITRFASGSKIVLTRLCVALASLALSMMPDAWPCAVADMVRLFQAEDSPVDGQGRCLALLELLTVLPEEFQTSRLPQYRKGLVRTSLAVECGAVFPLLEQLLQQPSSPSCVRQKVLKCFSSWVQLEVPLQDCEALIQAAFAALQDSELFDSSVEAIVNAISQPDAQRYVNTLLKLIPLVLGLQEQLRQAVQNGDMETSHGICRIAVALGENHSRALLDQVEHWQSFLALVNMIMFCTGIPGHYPVNETTSSLTLTFWYTLQDDILSFEAEKQAVYQQVYRPVYFQLVDVLLHKAQFPSDEEYGFWSSDEKEQFRIYRVDISDTLMYVYEMLGAELLSNLYDKLGRLLTSSEEPYSWQHTEALLYGFQSIAETIDVNYSDVVPGLIGLIPRISISNVQLADTVMFTIGALSEWLADHPVMINSVLPLVLHALGNPELSVSSVSTLKKICRECKYDLPPYAANIVAVSQDVLMKQIHKTSQCMWLMQALGFLLSALQVEEILKNLHSLISPYIQQLEKLAEEIPNPSNKLAIVHILGLLSNLFTTLDISHHEDDHEGPELRKLPVPQGPNPVVVVLQQVFQLIQKVLSKWLNDAQVVEAVCAIFEKSVKTLLDDFAPMVPQLCEMLGRMYSTIPQASALDLTRQLVHIFAHEPAHFPPIEALFLLVTSVTLTLFQQGPRDHPDIVDSFMQLLAQALKRKPDLFLCERLDVKAVFQCAVLALKFPEAPTVKASCGFFTELLPRCGEVESVGKVVQEDGRMLLIAVLEAIGGQASRSLMDCFADILFALNKHCFSLLSMWIKEALQPPGFPSARLSPEQKDTFSQQILRERVNKRRVKEMVKEFTLLCRGLHGTDYTADY | soluble
MERTFSEALKNRRTYYSITDQSPIPDQEIECIINLAVRHVPSAFNSQSTRVVLLLGKSHKKLWNIVKDALRKIVPGEAFAKTEEKIDNSFACGYGTVLFFEDQKVVKGLQEAFPSYQENFPGWSLQTSAMHQLAVWVMLEDVGFGASLQHYNPLIDDEVRRAWNLPAHWHLIAEMPFGVPVNKPGEKEFQPLEERIKVFK | not soluble
